Laboratory results published in patent US20240174744A1 (SCIRHOM, published 2024).

T1: miR2-FL-WT-T7 (mouse iRhom2 full length wild type C-terminally tagged with 3 consecutive copies of the T7 … (mouse, UniProt Q80WQ6 1-827))
T1 construct: also called mouse iRhom2 variant expressed by MEF-DKO-miR2-FL-WT-T7 cells
T1 sequence: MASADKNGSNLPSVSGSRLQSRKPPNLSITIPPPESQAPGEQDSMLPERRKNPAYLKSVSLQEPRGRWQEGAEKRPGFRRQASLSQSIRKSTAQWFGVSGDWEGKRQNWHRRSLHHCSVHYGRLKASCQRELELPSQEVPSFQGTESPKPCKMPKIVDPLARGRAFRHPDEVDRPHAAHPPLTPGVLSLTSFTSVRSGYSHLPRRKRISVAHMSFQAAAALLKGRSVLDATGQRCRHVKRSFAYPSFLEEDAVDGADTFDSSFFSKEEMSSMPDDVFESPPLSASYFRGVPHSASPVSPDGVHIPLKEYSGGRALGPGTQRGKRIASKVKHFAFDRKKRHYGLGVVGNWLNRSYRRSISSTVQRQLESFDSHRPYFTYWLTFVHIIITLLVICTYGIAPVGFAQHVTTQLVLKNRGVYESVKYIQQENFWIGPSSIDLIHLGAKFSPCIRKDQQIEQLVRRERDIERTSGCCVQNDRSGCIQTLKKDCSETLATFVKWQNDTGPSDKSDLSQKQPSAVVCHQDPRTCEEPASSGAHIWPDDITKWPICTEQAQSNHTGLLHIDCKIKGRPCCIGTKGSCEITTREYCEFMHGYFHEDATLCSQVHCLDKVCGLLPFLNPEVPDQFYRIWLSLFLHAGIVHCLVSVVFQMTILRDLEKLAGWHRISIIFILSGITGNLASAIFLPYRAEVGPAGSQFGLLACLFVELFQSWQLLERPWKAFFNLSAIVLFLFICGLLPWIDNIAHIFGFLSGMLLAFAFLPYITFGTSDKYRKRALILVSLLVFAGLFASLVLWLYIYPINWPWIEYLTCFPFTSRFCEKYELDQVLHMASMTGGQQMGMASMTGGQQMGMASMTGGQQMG

B1: antibody 34 (antibody, V domains shown)
VH: QVTLKESGPGILQPSQTLSLTCSFSGFSLSTFSLGVGWIRQSSGKGLEWLAHIWWDDEKYYNPALKSRLTISKDTSKNQVFLKIANVDAADTATYYCARAYYSKSYYALDYWGQGTSVTVSS
VL: DIQMTQSPSSLSASLGERVSLTCRASQEISGYLSWLQQKPDGTIKRLIYAASTLDSGVPKRFSGSRSGSDYSLAISSLESEDFADYYCLQYANFPFTFGSGTKLEIK
notes: Mouse IgG, kappa light chain; also called clone #34; m34
B2: antibody 43 (antibody, V domains shown)
VH: QVALKESGPGILQPSQTLSLTCSFSGFSLSTFGMGVGWIRQSSGKGLEWLANIWWDDDKYYNPALKSRLTISKDASKNQAFLKIANVDTADTATYYCARIGNYGSNYWYFDVWGTGTTVTVSS
VL: QIVLTQSPAIMSASPGERVTMTCSANSRISYMYWYQQKPGSSPRLLIYDTSNLASGVPVRFSGSGSGTSYSLTISRMEAEDAATYNCQQWSSYPLTFGAGTKLELK
notes: Mouse IgG, kappa light chain; also called clone #43
B3: antibody 42 (antibody, V domains shown)
VH: QVTLKESGPGILQPSQTLSLTCSLSGFSLSTFGRGVGWIRQPSGKGLEWLAHIWWDDEKYYNPALKSRLTISKDTSKNQVFLRIANVDTADTATYYCARIQNYGSNYWYFDVWGTGTTVTVSS
VL: LIVLTQSPAIMSASPGEKVTMTCGATSRISYMFWYQQKPGSSPRVLIYDTSNLASGVPVRFSGSGSGTSYSLTISRVEAEDVATYYCQQWNSYPLTFGAGTKLELK
notes: Mouse IgG, kappa light chain; also called clone #42; m42
B4: antibody 44 (antibody, V domains shown)
VH: QVTLKESGPGILQPSQTLSLTCSFSGFSLSTFGMGVGWIRQPSEKGLEWLAHIWWDDDKYYNPALKSRLTISKDTSKNQIFLKITNVDTAETATYYCSRIGNYGSNYWYFDVWGTGTTVTVSS
VL: QIVLTQSPAVMSASPGEKVTMTCTASSSVYYMYWYQQTPGSSPRLLIYDTSNLASGVPVRFSGSGSGTSYSLTISRMEAEDAATYYCQQWNTYPLTFGAGTKLELK
notes: Mouse IgG, kappa light chain; also called clone #44; m44
B5: antibody 5 (antibody, V domains shown)
VH: QVTLKESGPGILQPSQTLSLTCSFSGFSLSTFGMGVGWIRQPSGKGLEWLAHIWWDDEKYYNSALKSRLTISKATSKNQAFLKIANVDTADTATYYCARISNYGSNYWYFNVWGTGTTVTVSS
VL: QVVLTQSPALMSASPGEKVTMTCSAGSSVSCMYWYQQKPGSSPRVLIYDTSNLASGVPARFTGSGSGTSYSLTISRMEAEDAASYYCQQWNSYPLTFGAGTKLELK
notes: Mouse IgG, kappa light chain; also called clone #5; purified antibody 5
B6: antibody 22 (antibody, V domains shown)
VH: QVTLKESGPGILQPSQTLSLTCSFSGFSLSTFGMGVGWIRQPSGKGLEWLAHIWWDDEKYYNSALKSRLTISKATSKNQVFLKIANVDTADTATYYCARISNYGSNYWYFNVWGTGTTVTVSS
VL: QVVLTQSPALMSASPGEKVTMTCSAGSSVSYMYWYQQKPGSSPRVLIYDTSNLASGVPARFTGSGSGTSYSLTISRMEAEDAATYYCQQWNSYPLTFGAGTKLELK
notes: Mouse IgG, kappa light chain; also called clone #22; m22
B7: antibody 50 (antibody, V domains shown)
VH: QVQLQQSGAELVRPGASVKVSCKASGYAFSNYLIEWVKQRPGQGLEWIGVINPGSGFTKYNEKFKGKATLTADKSSSTAYMQLSSLTSEDSAVYFCARGLYRAMDYWGQGTSVTVSS
VL: DIQMTQSPASQSASLGESVTITCLASQTIGTWLAWYQQKPGKSPQLLIYAAASLADGVPSRFSGGGSGTKFSFKISSLQAEDFVNYYCQQIYSTPYTFGGGTKLEIK
notes: Mouse IgG, kappa light chain; also called clone #50; purified antibody 50
B8: antibody 16 (antibody, V domains shown)
VH: QVTLKESGPGILQPSQTLSLTCSFSGFSLSTFALGVGWIRQPSGRGLEWLAHIWWDDDKYYNPALKSRLTISKDTSKNHVFLKIANVDTADTATYYCARITTYYYGMDYWGQGTSVTVSS
VL: DIVLSQSPATLSVTPGDSVSLFCRASQSIGNHLHWYQQESHASPRLLIKYASQSISGIPSRFSGSGSGTDFTLSINSVETEDFGMYFCQQSYNWPLTFGAGTKLELK
notes: Mouse IgG, kappa light chain; also called clone #16; m16

Each binder was assayed against T1, miR2-FL-WT-T7 (mouse iRhom2 full length …) (assay: FACS on cells of the row mouse iR2 wild type).
B1: no binding (tested: 3 µg/ml). B2: no binding (tested: 3 µg/ml). B3: no binding (tested: 3 µg/ml). B4: no binding (tested: 3 µg/ml). B5: no binding (tested: 3 µg/ml). B6: no binding (tested: 3 µg/ml). B7: no binding (tested: 3 µg/ml). B8: no binding (tested: 3 µg/ml).
